From article doi:10.1101/2023.08.11.553033
Like-named read-outs stand apart in the source and are kept apart here.

Legend:
Pdr1p DBD [1] = biological target: T1, Pdr1p DBD (Saccharomyces cerevisiae, UniProt P12383 1-207); experiment: competition fluorescence polarization
T1 sequence: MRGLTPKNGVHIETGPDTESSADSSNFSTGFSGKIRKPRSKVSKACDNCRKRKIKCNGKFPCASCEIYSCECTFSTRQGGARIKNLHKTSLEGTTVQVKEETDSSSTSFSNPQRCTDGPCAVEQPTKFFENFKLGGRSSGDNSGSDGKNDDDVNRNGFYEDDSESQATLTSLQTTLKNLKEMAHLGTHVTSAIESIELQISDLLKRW

Pdr3p DBD [2] = biological target: T2, Pdr3p DBD (Saccharomyces cerevisiae, UniProt P33200 1-184); experiment: competition fluorescence polarization
T2 sequence: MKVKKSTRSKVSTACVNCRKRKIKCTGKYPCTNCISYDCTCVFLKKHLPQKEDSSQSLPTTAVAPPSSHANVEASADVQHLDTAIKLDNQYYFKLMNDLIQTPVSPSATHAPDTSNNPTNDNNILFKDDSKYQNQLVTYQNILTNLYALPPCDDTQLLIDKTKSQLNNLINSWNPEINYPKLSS

Pdr1p DBD [3] = biological target: T1, Pdr1p DBD; experiment: competition fluorescence polarization; remark: listed apart in the source
Pdr3p DBD [4] = biological target: T2, Pdr3p DBD; experiment: competition fluorescence polarization; remark: listed apart in the source
Pdr1p DBD [5] = biological target: T1, Pdr1p DBD; experiment: fluorescence polarization
Pdr3p DBD [6] = biological target: T2, Pdr3p DBD; experiment: fluorescence polarization
Pdr1p DBD [7] = biological target: T1, Pdr1p DBD; experiment: competition fluorescence polarization; remark: listed apart in the source
Pdr3p DBD [8] = biological target: T2, Pdr3p DBD; experiment: competition fluorescence polarization; remark: listed apart in the source
Pdr1p DBD [9] = biological target: T1, Pdr1p DBD; experiment: competition fluorescence polarization; remark: listed apart in the source

B1: PBM half site TTCAAGAA (dsDNA)
DNA 1: AAAAGTTCAAGAACAACC
DNA 2: GGTTGTTCTTGAACTTTT
With B1 the binding signal (Pdr1p DBD [1]) was 30 fold lower affinity than PBM half site and the binding signal (Pdr3p DBD [2]) was 2.5 fold lower affinity than PBM half site.

B2: PBM half site TTCCGAAA (dsDNA)
DNA 1: AAAAGTTCCGAAACAACC
DNA 2: GGTTGTTTCGGAACTTTT
B2: binds (Pdr1p DBD [3]); binds (Pdr3p DBD [4]).

B3: PBM half site 18mer (dsDNA)
DNA 1: AAAAGTTCCGGAACAACC
DNA 2: GGTTGTTCCGGAACTTTT
Binder B3 has a Kd (Pdr1p DBD [5]) of 229 nM and a Kd (Pdr3p DBD [6]) of 118 nM.

B4: PDR5_4 C4A G4T G14A (paper numbering) (dsDNA)
DNA 1: AAAATTCCGTGGAAAACC
DNA 2: GGTTTTCCACGGAATTTT
B4: binds (Pdr1p DBD [7]); binds (Pdr3p DBD [8]).

B5: PDR5_4 G4T G14A (paper numbering) (dsDNA)
DNA 1: AAACTTCCGTGGAAAACC
DNA 2: GGTTTTCCACGGAAGTTT
B5: binds (Pdr1p DBD [9]).
